Results reported in publication PMC3205435 (Journal of molecular recognition : JMR, 2011).
Read-outs that look alike come from different tables or passages of the source.

B1: DB domain of ERα pre-treated with EDTA to strip divalent zinc ions (metal-free DB domain) (domain or fragment, human, UniProt P03372 176-250, looked up)
chain: MESAKETRYCAVCNDYASGYHYGVWSCEGCKAFFKRSIQGHNDYMCPATNQCTIDKNRRKSCQACRLRKCYEVGM
B2: DB domain of ERα reconstituted with divalent ions of cobalt (domain or fragment, human, UniProt P03372 176-250, looked up)
chain: B1 chain
B3: DB domain of ERα reconstituted with divalent ions of zinc (domain or fragment, human, UniProt P03372 176-250, looked up)
chain: B1 chain
B4: DB domain of ERα reconstituted with divalent ions of cadmium (domain or fragment, human, UniProt P03372 176-250, looked up)
chain: B1 chain
B5: DB domain of ERα reconstituted with divalent ions of mercury (domain or fragment, human, UniProt P03372 176-250, looked up)
chain: B1 chain
B6: ERE duplex (dsDNA)
DNA 1: CCCAGGTCACAGTGACCTGCG
DNA 2: CGCAGGTCACTGTGACCTGGG

Experiments:
SEC-MALS = molecular target: the molecule itself; assay: SEC-MALS
[1] = molecular target: T1, ERα DB domain (DNA-binding domain) (human, UniProt P03372 176-250); assay: ITC
[2] = molecular target: T1, ERα DB domain (DNA-binding domain); assay: ITC; remark: listed apart in the source

Binder | stoichiometry N (SEC-MALS) | Kd [1] [nM] | Kd [2] [nM]
B1 | 2 | – | –
B2 | 2 | – | –
B3 | 2 | – | –
B4 | 2 | – | –
B5 | 2 | – | –
B6 | – | 81 ± 2 | 68 ± 8
